Measured values from patent US7867732B2, “Isolated polypeptide binding to a sugar chain, polynucleotide encoding the polypeptide and use of the polypeptide and polynucleotide” (National University of Corporation Hiroshima University, priority 2005, dated 2011).
Converted amounts (≈) assume the structure as drawn.

B1: ESA-2: Eucheuma serra-derived lectin (protein)
chain: GRYTVQNQWGGSSAPWNDAGLWILGSRGNQNVMAVDVNSSDGGANLNGTMTYSGEGPIGFKGARRGESNVYDVENQWGGSSAPWHAGGQFVIGSRSGQGVLAVNITSSDGGKTLTGTMTYEREGPIGFKGTQSGGDTYNVENQWGGSSAPWNKAGIWALGDRSGQAMIAMDVSSSDGGKTLEGTMQYKGEGPIGFRGKLSGANNYSVENQWGGSSAPWNAAGDWLIGDRHNQNITAVKVSSDNDGKNLDGTCTYEREGPIGFKGVATS
B2: BML-17: polypeptide (lectin) isolated from seaweed Bryopsis maxima; amino acid sequence of SEQ ID NO: 2 (protein, listed as Bryopsis maxima)
chain: VIYQDPVTSDMFAKIPMPGHRGPWYVCHSSGDWSRNEPVFGRCALDAKGMVEAYFPYGGKDIKWPSRWSAVLTTGVYWGKYNDWKQADCNGGQQVVDGGRGAVTVRMDGLSECKGWTTGKSSHNEVWFGCNGKEVGSWLSDTPASDVFPLCQEYGAAVKLVHMGRAFN

What was measured:
[1] = tested on: BML-17; assay: Hemagglutination-inhibition test with BML-17 and trypsin-treated rabbit erythrocytes; type: cell-based, Bryopsis maxima
Procedure: (§1) Hemagglutinating activity was measured using a micro titer method. Twenty-five μl of serially two-fold dilutions of each purified fraction solution adjusted with saline was placed on a micro titer plate. Each diluted solution was supplemented with 25 μl of a 2% suspension of trypsin-treated rabbit erythrocytes and was gently stirred. The mixture was allowed to stand at room temperature for 1.5 hours and agglutination was observed. Agglutination was evaluated with naked eye. Agglutination of 50% or greater percentage of red blood cells was evaluated as positive. Agglutinating activity was given by agglutination titer, i.e., the protein concentration of maximum diluent showing agglutinating activity.
(§2) In this Example, trypsin-treated rabbit red blood cells (TRBC) were used as red blood cells. TRBC was prepared as follows. First, 2 ml of blood was collected from the ear of a rabbit kept in laboratory. The blood sample was washed 3 times with about 50 ml of saline, and was supplemented with 50 ml of saline to obtain a 2% rabbit blood cell suspension. The solution was supplemented with 1/10 volume of 0.5% trypsin in saline, and was allowed to stand at 37° C. for 1.5 hours. The trypsin-treated red blood cells were then washed 3 times with saline, and were supplemented with 45 ml of saline to obtain a 2% suspension of trypsin-treated rabbit erythrocytes (or blood cells) (TRBC).
Hemagglutination-inhibition test was performed according to the following procedure. First, each 25 μl of serially two-fold dilutions of sugar solution in saline was placed on a micro titer plate. The concentration of the original solutions of sugars examined was 100 mM for monosaccharides and oligosaccharides, and 2 mg/ml for glycoproteins. Each solution was mixed with 25 μl of BML-17 solution that had been adjusted to an agglutination titer of 4, and allowed to stand for 1.5 hours at room temperature after gentle stirring. Then, 25 μl of TRBC was added, and the mixture was allowed to stand for 2 hours at room temperature to observe hemagglutination inhibitory capability. The presence or absence of hemagglutination inhibitory capability was determined by naked eye. The test was positive when no hemagglutination occurred in about 100% of the red blood cells.
The hemagglutination inhibition test used D-glucose, D-galactose, D-mannose, N-acetyl-D-glucosamine, N-acetyl-D-galactosamine, D-xylose, L-fucose, fructose, lactose, and raffinose as monosaccharides and oligosaccharides. As glycoproteins, mucin (bovine submaxillary gland) and asialomucin, fetuin (type III, calf serum) and asialofetuin, transferrin (human) and asialotransferrin, α1-acid glycoprotein (human) and alialo-α1-acid glycoprotein, and yeast mannan were used.

[2] = tested on: BML-17; assay: as above; type: cell-based, Bryopsis maxima; details: gel filtration active fractions instead of purified BML-17
[3] = tested on: chicken egg yolk antibody (chicken IgY antibody); assay: Search for lectins that bind to chicken egg yolk antibody by SPR (Biacore 2000); type: binding; details: chicken IgY immobilized as ligand
Excerpt: Assessment was made as to affinity of the different types of lectins and chicken egg yolk antibody (chicken IgY antibody). Briefly, using Biacore 2000 (BIACORE) that employs the principle of surface plasmon resonance method (hereinafter, “SPR method”), chicken egg yolk antibodies (chicken IgY antibodies) were immobilized as ligands on a sensor chip, and measurements were made according to manuals using each type of lectin solution as an analyte. The SPR technique allows for measurement of specific interactions between biomolecules both quickly and quantitatively, without labeling the biomolecules. According to this technique, the ligands are immobilized on a surface of the sensor chip, which is then supplemented with a solution of substance (analyte) that acts on the ligand. Slight changes in mass caused by the binding and dissociation of the molecules are then detected as changes in SPR signals. The mass change is represented by resonance unit (RU). One thousand RU is equivalent to a change in reflection angle of 0.1° caused by resonance, and it means that the analyte has bound to the ligand at 1 ng/mm^2. The surface of the sensor chip is coated with dextran, and the ligands are immobilized primarily via carboxyl groups that have been introduced into the dextran.
Note that, as permitted, the lectins tested as analytes were selected to have different sugar binding specificity. The chicken egg yolk antibody (chicken IgY antibodies) tested as ligands were obtained by purification from egg yolk, using Eggcellent Chicken IgY Purification Kit (Pierce Chem. Co. USA).

[4] = tested on: chicken egg yolk antibody (chicken IgY antibody); assay: SPR kinetics analysis of affinity between lectins and immobilized chicken egg yolk antibody; type: binding; details: lectin as analyte; for Kd: read-out: Dissociation Constant KD
Procedure: (§3) Immobilization was performed according to manuals. Specifically, Taka-amylase A was immobilized using a surface thiol coupling method, and asialofetuin, bovine tyroglobulin, antibody, and BSA were immobilized using an amine coupling method. Each sample was immobilized in an amount within a range of 1000 RU to 1500 RU as adjusted by a manual injection method. Purity of the glycoprotein was confirmed by SDS-PAGE or MALDI-TOF-MS.
Affinity between each glycoprotein and each lectin was analyzed by SPR technique. Prior to analysis, preliminary analyses were made to assess analysis methods. […] Approximate KD values were calculated from a resulting sensorgram, and five or more steps of two-fold series dilutions of analyte (lectin) were prepared at target concentrations of 0.1 to 10 KD [M]. An analysis program was created using “Customized Application” according to the manual, and a subtraction function was used in which subtraction was made from flow cells that had glycoproteins immobilized thereon, from among four flow cells in the sensor chip. […] Under this analysis program, each analyte (lectin) solution was flown on the sensor chip at a flow rate of 30 μl/min for 3 minutes, and buffer was flown for 3 minutes to measure the amount of lectin that had bonded/dissociated. Note that, an increase in RU during the time period from 10 seconds before addition of the analyte and to 10 seconds before the end of addition of analyte was given as the amount of bonding. A decrease in RU in the time period from 10 seconds after the addition of buffer to 10 seconds before the end of addition of buffer was given as the amount of dissociation.
Next, the sensor chip was washed with 0.5 M D-mannose, 10 mM glycine-HCl (pH 4.0), 50 mM HCl, and 10 mM NaOH for reproduction. Concerning the resulting sensorgram, the bonding phase and dissociation phase were fitted together with the curve to determine a bonding rate constant Ka, a dissociation rate constant kd, an affinity constant KA, and a dissociation constant KD.
Table 1 represents affinity constants of chicken egg yolk antibody and the various lectins. Table 1 represents bonding rate constant Ka (M^−1s^−1), dissociation rate constant Kd (s^−1), affinity constant KA (M^−1), and dissociation constant KD (M). The greater the affinity constant, the greater the affinity (stronger binding).

[5] = molecular target: T1, asialotransferrin (Homo sapiens, UniProt P02787); assay: SPR kinetics analysis of affinity between lectins and immobilized asialotransferrin; type: binding
T1 construct: purchased SIGMA
T1 sequence (P02787 20-698): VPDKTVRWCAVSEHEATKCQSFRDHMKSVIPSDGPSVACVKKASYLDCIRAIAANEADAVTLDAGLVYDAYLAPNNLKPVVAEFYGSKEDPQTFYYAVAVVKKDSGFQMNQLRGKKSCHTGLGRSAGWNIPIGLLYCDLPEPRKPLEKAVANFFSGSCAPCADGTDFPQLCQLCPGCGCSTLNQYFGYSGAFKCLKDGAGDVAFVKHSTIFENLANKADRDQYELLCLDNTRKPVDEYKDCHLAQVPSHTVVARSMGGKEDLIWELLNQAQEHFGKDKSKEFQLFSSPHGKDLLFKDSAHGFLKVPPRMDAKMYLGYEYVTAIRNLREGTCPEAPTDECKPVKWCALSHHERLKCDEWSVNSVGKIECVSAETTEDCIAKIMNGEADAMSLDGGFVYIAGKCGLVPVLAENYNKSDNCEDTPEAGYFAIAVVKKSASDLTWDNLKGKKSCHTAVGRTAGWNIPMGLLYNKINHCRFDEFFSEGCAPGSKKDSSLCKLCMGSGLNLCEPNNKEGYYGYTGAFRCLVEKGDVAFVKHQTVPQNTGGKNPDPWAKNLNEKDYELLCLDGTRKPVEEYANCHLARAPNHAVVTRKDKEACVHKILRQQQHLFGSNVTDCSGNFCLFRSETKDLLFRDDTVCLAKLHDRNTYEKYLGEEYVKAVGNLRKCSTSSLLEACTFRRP
Procedure: as §3
Affinity between each glycoprotein and each lectin was analyzed by SPR technique. Prior to analysis, preliminary analyses were made to assess analysis methods. […] Approximate KD values were calculated from a resulting sensorgram, and five or more steps of two-fold series dilutions of analyte (lectin) were prepared at target concentrations of 0.1 to 10 KD [M]. An analysis program was created using “Customized Application” according to the manual, and a subtraction function was used in which subtraction was made from flow cells that had glycoproteins immobilized thereon, from among four flow cells in the sensor chip. […] Under this analysis program, each analyte (lectin) solution was flown on the sensor chip at a flow rate of 30 μl/min for 3 minutes, and buffer was flown for 3 minutes to measure the amount of lectin that had bonded/dissociated. […]

[6] = molecular target: T2, bovine tyroglogulin (Bos taurus, UniProt P01267); assay: Elutability of lectins bound to a bovine tyroglobulin-immobilized chip (SPR); type: binding, cattle; details: 0.5 M D-mannose
T2 construct: purchased SIGMA
T2 sequence (P01267 20-2769): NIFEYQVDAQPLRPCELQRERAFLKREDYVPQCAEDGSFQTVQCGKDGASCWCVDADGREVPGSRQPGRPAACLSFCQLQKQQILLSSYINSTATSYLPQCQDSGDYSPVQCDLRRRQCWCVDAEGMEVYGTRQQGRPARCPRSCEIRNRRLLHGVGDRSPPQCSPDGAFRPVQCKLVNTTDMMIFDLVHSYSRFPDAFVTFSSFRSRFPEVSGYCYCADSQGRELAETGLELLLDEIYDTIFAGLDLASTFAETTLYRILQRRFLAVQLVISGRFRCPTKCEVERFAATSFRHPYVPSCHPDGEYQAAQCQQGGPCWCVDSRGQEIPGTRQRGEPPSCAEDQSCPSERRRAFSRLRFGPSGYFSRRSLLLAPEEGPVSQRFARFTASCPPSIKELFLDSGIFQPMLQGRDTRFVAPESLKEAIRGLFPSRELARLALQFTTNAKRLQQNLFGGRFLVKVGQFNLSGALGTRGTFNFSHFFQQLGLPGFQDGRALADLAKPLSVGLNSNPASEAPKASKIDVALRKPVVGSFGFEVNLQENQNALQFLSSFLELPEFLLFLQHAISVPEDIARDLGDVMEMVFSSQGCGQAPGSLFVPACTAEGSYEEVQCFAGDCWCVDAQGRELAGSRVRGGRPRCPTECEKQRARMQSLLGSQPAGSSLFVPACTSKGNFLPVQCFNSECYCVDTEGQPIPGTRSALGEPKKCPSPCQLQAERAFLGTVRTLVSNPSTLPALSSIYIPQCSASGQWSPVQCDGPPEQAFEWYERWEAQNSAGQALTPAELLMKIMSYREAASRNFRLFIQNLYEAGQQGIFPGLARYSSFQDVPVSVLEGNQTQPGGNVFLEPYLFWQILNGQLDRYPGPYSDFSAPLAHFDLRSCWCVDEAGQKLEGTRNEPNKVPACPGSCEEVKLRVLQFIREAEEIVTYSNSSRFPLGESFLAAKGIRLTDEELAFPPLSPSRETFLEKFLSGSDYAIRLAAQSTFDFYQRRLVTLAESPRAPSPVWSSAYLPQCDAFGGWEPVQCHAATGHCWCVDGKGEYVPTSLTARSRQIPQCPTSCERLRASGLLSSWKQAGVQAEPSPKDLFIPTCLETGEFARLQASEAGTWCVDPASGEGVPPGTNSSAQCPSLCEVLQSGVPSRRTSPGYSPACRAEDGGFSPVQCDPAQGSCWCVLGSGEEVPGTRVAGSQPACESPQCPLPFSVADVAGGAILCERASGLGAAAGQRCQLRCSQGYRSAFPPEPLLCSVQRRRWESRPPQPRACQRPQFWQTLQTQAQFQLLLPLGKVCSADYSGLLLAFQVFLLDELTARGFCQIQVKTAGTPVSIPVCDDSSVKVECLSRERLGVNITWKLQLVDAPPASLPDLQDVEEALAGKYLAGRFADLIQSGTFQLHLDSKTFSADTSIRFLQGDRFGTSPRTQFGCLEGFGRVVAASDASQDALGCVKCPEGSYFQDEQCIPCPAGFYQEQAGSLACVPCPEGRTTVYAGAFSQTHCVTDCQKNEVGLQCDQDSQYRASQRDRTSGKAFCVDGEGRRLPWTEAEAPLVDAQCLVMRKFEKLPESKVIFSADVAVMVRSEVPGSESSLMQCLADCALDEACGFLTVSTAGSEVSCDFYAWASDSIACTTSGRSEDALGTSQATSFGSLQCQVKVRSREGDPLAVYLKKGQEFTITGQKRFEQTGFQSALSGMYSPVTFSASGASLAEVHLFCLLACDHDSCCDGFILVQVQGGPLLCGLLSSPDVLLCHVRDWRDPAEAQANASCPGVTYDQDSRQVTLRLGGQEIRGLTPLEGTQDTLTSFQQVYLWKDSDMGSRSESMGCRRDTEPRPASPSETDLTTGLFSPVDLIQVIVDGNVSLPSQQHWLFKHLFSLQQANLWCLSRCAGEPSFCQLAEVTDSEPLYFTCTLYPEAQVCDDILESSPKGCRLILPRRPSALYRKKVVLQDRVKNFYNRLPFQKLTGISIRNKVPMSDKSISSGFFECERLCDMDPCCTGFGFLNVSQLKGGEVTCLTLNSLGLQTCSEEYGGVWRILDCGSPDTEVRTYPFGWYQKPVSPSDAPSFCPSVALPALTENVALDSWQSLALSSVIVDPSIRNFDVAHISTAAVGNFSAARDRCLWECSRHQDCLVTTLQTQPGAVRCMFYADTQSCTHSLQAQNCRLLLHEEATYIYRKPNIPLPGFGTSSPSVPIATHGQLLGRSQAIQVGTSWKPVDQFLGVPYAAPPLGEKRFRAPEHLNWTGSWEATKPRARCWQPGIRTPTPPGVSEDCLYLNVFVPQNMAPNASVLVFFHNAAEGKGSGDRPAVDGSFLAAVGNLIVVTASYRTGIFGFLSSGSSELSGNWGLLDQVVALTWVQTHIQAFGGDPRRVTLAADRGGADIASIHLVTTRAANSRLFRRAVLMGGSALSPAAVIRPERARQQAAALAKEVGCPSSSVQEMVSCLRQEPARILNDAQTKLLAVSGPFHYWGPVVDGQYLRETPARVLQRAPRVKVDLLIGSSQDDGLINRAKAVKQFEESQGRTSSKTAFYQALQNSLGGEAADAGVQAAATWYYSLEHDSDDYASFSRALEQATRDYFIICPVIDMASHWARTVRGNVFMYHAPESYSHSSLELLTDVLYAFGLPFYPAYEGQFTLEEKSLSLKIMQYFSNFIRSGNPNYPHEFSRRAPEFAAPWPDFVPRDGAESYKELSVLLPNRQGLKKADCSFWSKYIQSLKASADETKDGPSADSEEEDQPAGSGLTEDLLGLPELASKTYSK
Excerpt: As in the case of chicken egg yolk antibody, a chip having immobilized thereon bovine tyroglogulin including the high-mannose-type sugar chain and the complex-type sugar chain was used to assess elutability of lectins that had bound to the chip. Note that, tyroglogulin was immobilized in a maximum amount (12,095 RU) on CM5 sensor chip, so as to make it easier to confirm specific binding and elution. Each solution of analyte (lectin) contained in HBS-EP (equilibriated) buffer (BIACORE) at a concentration of 100 μg/ml was flown at a flow rate of 5 μl/min until the amount of bonding reached equilibrium. After washing with HBS-EP buffer and the dissociation has reached equilibrium, 50 μl of 0.5 M D-mannose in the same buffer was injected. Based on the sensorgram, the amount of binding (RU) at the time when 50 μl (5 μg) of analyte (lectin) solution was injected was measured. Then, the amount of residual bonding (RU) of analyte (lectin) after buffer washing and elution with 50 μl of 0.5 M D-mannose was measured. The amount of residual bonding was given by percentage with respect to the maximum amount of bonding.
FIG. 3 represents the amount of residual bonding (%) of analyte (lectin) after the bonding, washing, and elution with 0.5 M D-mannose. FIG. 3 represents relative amounts of lectin that remain bonded to the chip after the dissociation with HBS-EP buffer, and relative amounts of lectin that remain after the elution with 0.5M D-mannose, when the amount of lectin binding to the bovine tyroglobulin immobilized chip exposed to the respective lectins is taken at 100%.

[7] = tested on: trypsin-treated rabbit red blood cell (TRBC); assay: Temperature stability and pH stability of BML-17 by agglutinating activity; type: physicochemical; details: 30-minute heat treatment
Procedure: as §1
as §2, with “The trypsin-treated red blood cells were then washed 3 times with saline, and were supplemented with 45 ml of saline to obtain a 2% suspension of trypsin-treated rabbit erythrocytes (or blood cells) (TRBC).” left out
Temperature stability and pH stability of BML-17 were evaluated, using agglutinating activity for trypsin-treated rabbit red blood cell (TRBC) as a measure.

Row | Molecule | Inhibition of agglutinating activity of BML-17 (in words) ([1]; TRBC) | Minimum inhibitory concentration ([1]; monosaccharides and oligosaccharides, inhibition of BML-17 (agglutination titer 4) agglutination of TRBC) [mM] | Inhibition of agglutinating activity of the active fractions obtained by gel filtration [2] | Binding to chicken egg yolk antibody (in words) [3] | Affinity Constant KA [4] [M⁻¹] | Binding Rate Constant ka [4] [M⁻¹ s⁻¹] | Dissociation Rate Constant kd [4] [s⁻¹] | Kd [4] [nM] | Affinity Constant KA [5] | Elution of bound lectin with D-mannose [6] | Temperature at which agglutinating activity attenuated [7] [°C]
1 | O=C[C@@H](O)[C@@H](O)[C@H](O)[C@H](O)CO [D-Mannose] | inhibited | 12.5 (≈ 2250 µg/mL) | not inhibited at all |  |  |  |  |  |  |  | 
2 | Con A: Canavallia ensiformis-derived lectin |  |  |  | binding to chicken egg yolk antibody (chicken IgY antibodies) occurs | 1.87e+07 | 467 | 2.49e-05 | 53.4 | 10^6 M^−1 | partially eluted with D-mannose | 
3 | B1 |  |  |  | binding to chicken egg yolk antibody (chicken IgY antibodies) occurs | 7.73e+07 | 352000 | 0.00455 |  |  | not eluted with D-mannose or any other eluents | 
4 | B2 |  |  |  | binding to chicken egg yolk antibody (chicken IgY antibodies) occurs | 8.36e+07 | 490000 | 0.00586 | 12 |  | specifically and quantitatively eluted with D-mannose | ≥ 60
